# Reference: patent publication US20090104178A1
# Key:
# APRIL (TNFL13) = experiment: SPR
# LIGHT (TNFL14) = experiment: SPR
substance,measurement,setting,value
Purified recombinant EV CrmD protein (receptor),Kd,APRIL (TNFL13),110 µM
same,Kd,LIGHT (TNFL14),140 nM
